Laboratory results reported in the supplement of paper PMC9170038.

Tested on: MS2 coat protein
Assay: apparent KD of MS2 coat protein; designed switch direction (-1 OFF switch, 1 ON switch): 1; higher = weaker reporter binding
Procedure, shortened: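 Each step of the titration lasted 0.8–1.5 h at the lowest concentration and 10–20 min at the highest. The protein, SNAP-549-labelled MS2 coat protein, went from 0.7 or 1.5 nM doubling to 3 µM over RNA switches transcribed on Illumina chips by stalled E. coli RNA polymerase. Normalised cluster fluorescence was curve-fitted, and the per-design median over clusters is given as apparent KD.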

[1] = input ligand: microRNA oligo, concentration not stated
[2] = Eterna round: R95, input ligand: FMN 200 uM
[3] = Eterna round: R95, input ligand: microRNA oligo, concentration not stated
[4] = Eterna round: R95, input ligand: none

Sequence | apparent KD of MS2 coat protein (input ligand: FMN 200 uM) [nM] | apparent KD of MS2 coat protein [1] [nM] | apparent KD of MS2 coat protein (input ligand: none) [nM] | apparent KD of MS2 coat protein [2] [nM] | apparent KD of MS2 coat protein [3] [nM] | apparent KD of MS2 coat protein [4] [nM]
GCCGCGUUUCGCGCCUACAUGAGGAUCACCCAUGUUUGUAGGCAGGAUAUCGCUCGCUUUGCGGGCGAGAAGGGCUGUUGUGGC [salish99_SSNG3_R04_019] (Eterna round: R96, puzzle: Same State NG 3) | 45.8 | 41.8 | 54.4 | – | – | –
GCCGUAUACAUGAGGAUCACCCAUGUUGACGCGAGAGUGGAUGAGGAUAUCGAUGGGUUUCCCGUCGAGAAGGCGUGGGUCGGC [JL SSNG3 3.00] (Eterna round: R96, puzzle: Same State NG 3) | 49.8 | 30.5 | 46.1 | – | – | –
GCGAAACAUGAGGAUCACCCAUGUAUGGCGGGCACAGGAUAUCGUGGUUCGCUCAUACUACGAGAAGGGUGAAAAG [Orqu] (puzzle: Same State 1) | – | – | – | 24.1 | 18.4 | 16.9
GCGAAAGCGGUAGGAUAUCUAGGAUAUGGGAAAGACUAAGUCUGUAGGUCACCUAACCCAGAAGGAGAGAAGGACAGGGAAACC [pwkr ssNG2 2FMN + F9.34] (Eterna round: R96, puzzle: Same State NG 2) | 38.8 | 28.9 | 22.1 | – | – | –
GCGAAAUGAUGAAACAUGAGGAUCACCCAUGUAACGAGAGAUGAGGAUAUCGGAAAGGGAGGAACCGAGAAGGCAUGGUCACGC [AK SSNG3-V2-26.1] (Eterna round: R96, puzzle: Same State NG 3) | 34.5 | 37.1 | 48.2 | – | – | –
GCGAGCGUACUUGCAACAUGAGGAUCACCCAUGUUAACUGGACAGGAUAUGGUACCGUUUCGGUACCAGAAGGGUUCACUCAUG [JL SSNG3 3.59] (Eterna round: R96, puzzle: Same State NG 3) | – | 64.2 | – | – | – | –
GCGAGCGUACUUGCAGACAUGAGGAUCACCCAUGUAAAUGGGAAGGAUAUGGUACCGUUUCGGUACCAGAAGGUCCUAAGUGAG [JL SSNG3 1.49] (Eterna round: R96, puzzle: Same State NG 3) | 129 | 702 | 646 | – | – | –
GCGAGCGUACUUGCUACAUGAGGAUCACCCAUGUUAACUGGACAGGAUAUGGUACCGUUUCGGUACCAGAAGGGUUCAUCAUGU [JL SSNG3 3.68] (Eterna round: R96, puzzle: Same State NG 3) | 306 | 245 | 665 | – | – | –
GCGAGCGUACUUGCUACAUGAGGAUCACCCAUGUUUAUUGGACAGGAUAUGGUACCGUUUCGGUACCAGAAGGGUCCACAUGUG [JL SSNG3 3.86] (Eterna round: R96, puzzle: Same State NG 3) | 106 | 182 | 289 | – | – | –
GCGAGGAUAUGCAGAGGAUCACCCUGUAGAAGGCGCAAAAGCGAGGAUAUGCAGAGGAUCACCCUGUAGAAGGCGCACUACUCU [pwkr ssNG3 DX 2xF5 +2xFMN.4] (Eterna round: R96, puzzle: Same State NG 3) | 153 | 161 | 221 | – | – | –
GCGAUAUGAUGCUACAUGAGGAUCACCCAUGUAGCGACAGCUAAGGAUAUUGGAAAGGGAGGAGACGAGAAGGUAGGGUCACGC [AK SSNG3-V2-24.1] (Eterna round: R96, puzzle: Same State NG 3) | 11.5 | 11.6 | 17.2 | – | – | –
GCGCAGCUGCGCAAUAUUACAUGAGGAUCACCCAUGUUGUCACAGGAUAUGCUGGACAGCGUCGAGCAGAAGGGUGACCAAACA [Zasovexe] (Eterna round: R96, puzzle: Same State NG 3) | 191 | 97.2 | 300 | – | – | –
GCGGAACAUGAGGAUCACCCAUGUAAAGGGUGUAAAGGAUAUUAUUGGGAGAAGGUAGGGUAAGAAGGUUGCUUGG [JR_SS1_Sub088] (Eterna round: R96, puzzle: Same State 1) | – | 432 | – | – | – | –
GCGGAACAUGAGGAUCACCCAUGUAAAGGGUGUAAAGGAUAUUAUUGGGAGAAGGUAGGGUAAGAAGGUUGCUUGG [JR_SS1_Sub088] (puzzle: Same State 1) | – | – | – | 609 | 666 | 1240
GCGGUACCUAACAUGAGGAUCACCCAUGUUCCGGAAACGGCACAGGAUAUCUGUCCGAAAAGGUCAGAGAAGGGUGAAAUCCGC [Fiskers NG3ss - 93] (Eterna round: R96, puzzle: Same State NG 3) | 361 | 51.6 | 93.3 | – | – | –
GCUAGAAUAAAUGCUAACAUGAGGAUCACCCAUGUAUGUUGGCAGGAUAUCGUAUGCAAAGCAUACGAGAAGGGCCAUACUAGC [Mat - Same State NG 3 - JL Mod - D27] (Eterna round: R96, puzzle: Same State NG 3) | 17.3 | 20.4 | 29.5 | – | – | –
GCUAGAAUUAAUGCCUACAUGAGGAUCACCCAUGUAUGUAGGCAGGAUAUCGUUUGCAAAGCAAACGAGAAGGGCCUUACUAGC [Mat - Same State NG 3 - JL Mod - D28] (Eterna round: R96, puzzle: Same State NG 3) | 21.9 | 46.1 | 63.7 | – | – | –
GCUAGAAUUAAUGCCUACAUGAGGAUCACCCAUGUAUGUAGGCAGGAUAUCGUUUGCUUUGCAAACGAGAAGGGCCUUACUAGC [JL SSNG3 1.10] (Eterna round: R96, puzzle: Same State NG 3) | 18.9 | 50.8 | 77.3 | – | – | –
GCUAGGAUAUGACGAGGAUCACCCGUUAGAAGGAGCUUCGGCUAGGAUAUGACGAGGAUCACCCGUUAGAAGGAGCUGUACUCU [pwkr ssNG3 DX 2xF5 +2xFMN.9] (Eterna round: R96, puzzle: Same State NG 3) | 144 | 76.7 | 92.3 | – | – | –
GCUAGUAUUAUUGCUAACAUGAGGAUCACCCAUGUAUGUUGGCAGGAUAUCGUUUGCAAAGCAAACGAGAAGGGCUAAACUAGC [Mat - Same State NG 3 - JL Mod - D13] (Eterna round: R96, puzzle: Same State NG 3) | 27.7 | 75.6 | 98.8 | – | – | –
GCUCGACGUAUGGCCUACAUGAGGAUCACCCAUGUGAUUGGGCAGGAUAUCUAGAUGCAGGAUGUAGAGAAGGGCCCGUCGAGC [SameState NG3 #47] (Eterna round: R96, puzzle: Same State NG 3) | 393 | 92 | 230 | – | – | –
GCUCGAUGAACGUCCUACAUGAGGAUCACCCAUGUUCGUGGGCAGGAUAUUUACAUGCAGAGUGUAGAGAAGGGCCCAUCGAGC [SameState NG3 #64] (Eterna round: R96, puzzle: Same State NG 3) | 67.8 | 74.6 | 165 | – | – | –
GCUCGAUGAGCUGUUUACAUGAGGAUCACCCAUGUAGAUGCGGAGGAUAUUUACGUGCUUUAUGUAGAGAAGGCCGUAUCGAGC [SameState NG3 #80] (Eterna round: R96, puzzle: Same State NG 3) | 14 | 24.5 | 24.1 | – | – | –
GCUCGAUGAUAGUCCUACAUGAGGAUCACCCAUGUAAGUGGGCAGGAUAUCUACAUGCAGAAUGUAGAGAAGGGCCCGUCGAGC [SameState NG3 #56] (Eterna round: R96, puzzle: Same State NG 3) | 16.1 | 16.4 | 23.2 | – | – | –
GCUCGGAUGAUGGCCCACAUGAGGAUCACCCAUGUGAGUGGGCAGGAUAUCUAGAUUAAGGAUGUAGAGAAGGGCCUACCGAGC [SameState NG3 #34] (Eterna round: R96, puzzle: Same State NG 3) | 2070 | 100 | 759 | – | – | –
GCUCGUGGUAUUGUCUACAUGAGGAUCACCCAUGUAGGUGCGGAGGAUAUUUACGUGUCUCAUGUAGAGAAGGCCGUCACGAGC [SameState NG3 #97] (Eterna round: R96, puzzle: Same State NG 3) | 52.2 | 190 | 297 | – | – | –
GCUGCGAUUAACGCCUACAUGAGGAUCACCCAUGUAUGUAGGCAGGAUAUCGUUUGCUUUGCAAACGAGAAGGGCUGUAGUAGC [salish99_SSNG3_R04_004] (Eterna round: R96, puzzle: Same State NG 3) | 39.4 | 68.4 | 86.9 | – | – | –
GCUUGCGGCGCAGGAUAUGGGUGCCUGUACAUGAGGAUCACCCAUGUUAAGGGACGGAAAACGAACCAGAAGGGCGUCGCGAGC [Inraeded] (Eterna round: R96, puzzle: Same State NG 2) | 84.9 | 218 | 1280 | – | – | –
GGAAAGAGGUUAGGAUAUGCAUGUUUGGGACAUGAGGAUCACCCAUGUAAUAGAAGAAAUCUACAGUAGAAGGGACAAGGAAGG [AK SSNG2-V2-6.1] (Eterna round: R96, puzzle: Same State NG 2) | 152 | 72.9 | 170 | – | – | –
GGAACACAUGAGGAUCACCCAUGUCAAGGAGGUCGAGGAUAUAGGAAAAAAAAAAAAAAAUUAGAAGGUGAGGAGG [V1] (Eterna round: R96, puzzle: Same State 1) | 270 | 166 | 275 | – | – | –
